In one data set the test system is CD133^+ Caco-2 cells. The data set is described as follows: Immunofluorescence of fixed Caco-2 cells with hybridoma supernatants. The note with it: hybridoma supernatant. It is filed as binding, human. The procedure: FIG. 2: Analysis of the newly generated CD133 hybridoma. Supematants of hybridoma clones were tested as a primary antibody in western blot (A) and Immunofluorescence (B) assays. Pre-immunized serum (-ve) or post immune anti sera (a.s.) served as controls. For western blot, Caco-2 lysates normalized for protein concentration were loaded onto a SDS-PAGE gel, resolved, blotted onto a nitrocellulose membrane and cut into strips. Each strip was probed with supernatant from the identified hybridoma. Membrane in Lane 1 was probed with a commercially available antibody (ab 19898, Abcam) and served as an additional positive control. For immunofluorescence, Caco-2 cells were fixed and immunostained with the hybridoma supernatants. A commercially available antibody (293C3, Militenyi) was used as additional positive control. Scale bars in the panel represent 200 micrometers. Supernatant of Hybridoma Clone 7 was used in the immunohistochemical analysis of primary glioblastoma and kidney tissue (C).
Caco-2 cells were plated in 16-well chamber slides. After four days of growth, the cells were fixed with 4% paraformaldehyde, washed in DPBS and then incubated in 200 mM glycine for 10 minutes. The cells were then blocked with a solution of 0.5% BSA and 0.2% gelatin in PBS for 10 minutes. […] The cells were further washed with PBS and then visualized under a fluorescence microscope. […]

Another data set addresses T1, CD133 (Homo sapiens, UniProt O43490).
T1 construct: endogenous in cells
T1 sequence (O43490 20-865): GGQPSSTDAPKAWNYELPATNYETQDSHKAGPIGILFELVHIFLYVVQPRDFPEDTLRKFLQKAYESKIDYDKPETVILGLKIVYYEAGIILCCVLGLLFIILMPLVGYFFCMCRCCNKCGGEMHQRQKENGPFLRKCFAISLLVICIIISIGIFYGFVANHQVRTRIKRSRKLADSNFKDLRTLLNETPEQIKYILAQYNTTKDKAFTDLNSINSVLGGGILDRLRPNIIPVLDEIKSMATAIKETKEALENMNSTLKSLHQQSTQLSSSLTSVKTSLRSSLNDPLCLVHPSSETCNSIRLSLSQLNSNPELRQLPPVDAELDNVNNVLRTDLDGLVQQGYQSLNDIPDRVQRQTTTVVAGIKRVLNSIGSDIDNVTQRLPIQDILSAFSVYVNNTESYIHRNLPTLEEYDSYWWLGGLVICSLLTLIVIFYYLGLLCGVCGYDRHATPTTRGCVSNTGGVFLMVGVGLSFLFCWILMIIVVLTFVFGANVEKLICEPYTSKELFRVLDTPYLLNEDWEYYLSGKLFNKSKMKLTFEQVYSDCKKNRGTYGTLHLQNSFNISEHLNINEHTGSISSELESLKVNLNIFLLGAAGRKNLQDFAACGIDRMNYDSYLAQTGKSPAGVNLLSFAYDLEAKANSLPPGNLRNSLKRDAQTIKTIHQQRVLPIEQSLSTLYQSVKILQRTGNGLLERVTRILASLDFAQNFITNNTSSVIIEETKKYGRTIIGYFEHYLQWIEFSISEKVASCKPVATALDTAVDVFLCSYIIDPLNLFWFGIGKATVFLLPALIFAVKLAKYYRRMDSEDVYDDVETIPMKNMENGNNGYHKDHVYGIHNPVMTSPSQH
The data set is described as follows: Immunohistochemistry of human glioma and kidney tissue sections. The class given is binding. The procedure: 5 μm paraffin sections of human kidney or glioblastoma tissue were mounted onto charged slides. The sections were deparaffinized and rehydrated using standard methods, rinsed in running tap-water and placed in a PBS bath for five minutes. The slides were then incubated in a pre-heated steamer bath with staining dish containing EDTA buffer (pH 8.0) for 30 minutes and then cooled for 20 minutes. The slides were washed with PBS (pH 7.4) for minimum of five minutes and then subjected to following incubation steps: blocking with serum-free background Sniper (Biocare Medical. Concord, Calif.), primary antibody at a 1:200 dilution of hybridoma supernatant at 4° C. overnight, Leica Bond post primary. Leica Bond polymer, and DAB chromagen developer. The sections were rinsed well, counterstained with hematoxylin, dehydrated, sealed with a cover slip and imaged.

B1: Hybridoma Clone 7: monoclonal antibody produced by Hybridoma Clone 7 that specifically binds to human CD133 (antibody, V domains shown)
VL: DIVLSQSPAIMSASPGEKVTISCSASSSVSYMYWYQQKPGSSPKPWIYRTSNLASGVPARFSGSGSGTSYSLTISSMEAEDAATYYCQQYHSYPPTFGAGTKLELK
VH: LEVKLVESGPELKKPGETVKISCKASGYTFTDYSMHWVNQAPGKGLKWMGWINTETGEPSYADDFKGRFAFSLETSASTAYLQINNLKNEDTATYFCATDYGDYFDYWGQGTTLTVSS
Regarding B1, the “immunofluorescence staining of the Caco-2 cell membrane” value in the data set on CD133^+ Caco-2 cells is on record as “robustly stained”. The immunohistochemical staining entry with CD133 was “membrane-specific staining”.
